Target: SARS-CoV-2 RBD (residues 319-529), His-tagged (SARS-CoV-2 (prototypic strain), UniProt P0DTC2 319-529)
Assay: SPR
Conditions: both partners purified

B1: raccoon dog ACE2 ectodomain (residues 1-614), Fc-tagged (Fc fusion)
chain: QSTEDLVNTFLEKFNYEAEELSYQSSLASWNYNTNITDENLQKMNNAGAKWSAFYEEQSKLAKTYPLEEIQDSTVKRQLRALQHSGSSVLSADKNQRLNTILNSMSTIYSTGKACNPSNPQECLLLEPGLDDIMENSKDYNERLWAWEGWRSEVGKQLRPLYEEYVALKNEMARANNYEDYGDYWRGDYEEEWENGYNYSRNQLIDDVEHTFTQIMPLYQHLHAYVRTKLMDTYPSYISPTGCLPAHLLGDMWGRFWTNLYPLTVPFGQKPNIDVTNAMVNQSWDARKIFKEAEKFFVSVGLPNMTQGFWENSMLTEPSDSWKVVCHPTAWDLGRGDFRIKMCTKVTMDDFLTAHHEMGHIQYDMAYAAQPFLLRNGANEGFHEAVGEIMSLSAATPNHLKNIGLLPPSFFEDSETEINFLLKQALTIVGTLPFTYMLEKWRWMVFKGEIPKDQWMKTWWEMKRNIVGVVEPVPHDETYCDPASLFHVANDYSFIRYYTRTIYQFQFQEALCQIAKHEGPLHKCDISNSSEAGQKLLEMLKLGKSKPWTYALEIVVGAKNMDVRPLLNYFEPLFTWLKEQNRNSFVGWNTDWSPYAD
- Kd: 399 nM
